From patent US20220275390A1 (TRUSTEES OF PRINCETON UNIVERSITY, published 2022)

T1: S1Cr_D23A
T1 construct: variant of m7
T1 chain: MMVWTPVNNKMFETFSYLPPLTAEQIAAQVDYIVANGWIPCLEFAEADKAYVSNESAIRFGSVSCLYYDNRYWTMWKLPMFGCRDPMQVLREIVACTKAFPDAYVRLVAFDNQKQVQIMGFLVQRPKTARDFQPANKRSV

T2: S1Cr_D23A+E24A
T2 construct: variant of m7
T2 chain: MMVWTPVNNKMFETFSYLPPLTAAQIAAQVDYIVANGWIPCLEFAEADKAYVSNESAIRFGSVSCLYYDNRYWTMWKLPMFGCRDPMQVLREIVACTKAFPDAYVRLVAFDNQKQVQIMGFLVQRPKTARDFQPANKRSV

T3: S1Cr_D23A+E24A+R91A
T3 construct: variant of m7
T3 chain: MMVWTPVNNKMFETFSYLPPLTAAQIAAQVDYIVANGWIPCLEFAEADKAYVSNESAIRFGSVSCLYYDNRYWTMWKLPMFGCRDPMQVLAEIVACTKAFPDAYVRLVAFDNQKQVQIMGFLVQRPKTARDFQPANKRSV

T4: S1Cr_M87D/V94D
T4 construct: variant of m7
T4 chain: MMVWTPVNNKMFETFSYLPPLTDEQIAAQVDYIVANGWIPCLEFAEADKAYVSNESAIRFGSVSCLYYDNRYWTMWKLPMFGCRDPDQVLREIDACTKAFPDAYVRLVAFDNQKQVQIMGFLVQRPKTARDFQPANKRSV


Tests used:
[1] = biological target: S1Cr_M87D (Chlamydomonas reinhardtii); test: cell-based or functional assay
[2] = biological target: S1Cr_V94D (Chlamydomonas reinhardtii); test: cell-based or functional assay
[3] = biological target: Chlamydomonas reinhardtii Rubisco small subunit 1 (Chlamydomonas reinhardtii, UniProt P00873 46-185); test: cell-based or functional assay
[4] = biological target: T1, S1Cr_D23A; test: yeast two-hybrid, EPYC1 as BD and SSU variant as AD
From the text: (§1) FIGS. 9A-9C show the results of a yeast two-hybrid (Y2H) assay to measure the interaction between EPYC1 and Rubisco SSU variants. […] The images shown were taken following three days of cell growth. The Rubisco SSU residues that form salt bridges with EPYC1 residues are bolded (D23, E24, and R91) and the residues that form the hydrophobic pocket with EPYC1 residues are bolded and italicized (M87 and V94). The “Control” images were taken from cells grown for three days on SD-L-W media and the “Test” images were taken from cells grown for three days on SD-L-W-H with 3-AT. Growth of yeast cells expressing the indicated EPYC1 and Rubisco SSU variants was measured after three days on SD-L-W-H with varying 3-AT concentrations. The highest concentration of 3-AT (0, 1, 2.5, 5, 10, and 20 mM) permissive for the growth of each EPYC1 and Rubisco SSU variant combination is shown, as indicated in the “Key” on the right.
(§2) Mutagenesis of EPYC1, Mutagenesis of Rubisco, Yeast Two-hybrid, Peptide Arrays and SPR Assays To determine the importance of individual EPYC1 residues for binding to Rubisco, the impact on Rubisco binding of every possible single amino acid substitution for EPYC1 RBM 2 was determined (FIG. 8). To determine the importance of individual Rubisco residues for binding to EPYC1, targeted mutations of the amino acids identified from atomic modeling were tested in a yeast two-hybrid assay as in van Nues and Beggs (Genetics 157: 1451-1467, 2000). Peptide arrays and SPR assays were performed as in Example 1.

[5] = biological target: T2, S1Cr_D23A+E24A; test: as above
From the text: as §1, §2

[6] = biological target: T3, S1Cr_D23A+E24A+R91A; test: as above
From the text: as §1, §2

[7] = biological target: T4, S1Cr_M87D/V94D; test: yeast two-hybrid, Control SD-L-W, Test SD-L-W-H with 3-AT (concentration not given)
From the text: as §1
Mutagenesis of EPYC1, Mutagenesis of Rubisco, Yeast Two-hybrid, Peptide Arrays and SPR Assays To determine the importance of individual EPYC1 residues for binding to Rubisco, the impact on Rubisco binding of every possible single amino acid substitution for EPYC1 RBM 2 was determined (FIG. 8). […]

[8] = biological target: T5, Chlamydomonas reinhardtii Rubisco holoenzyme (L8S8) (Chlamydomonas reinhardtii, UniProt P00877 3-475); test: SPR, steady-state fit
T5 construct: Purified from C. reinhardtii strain cMJ030 (sucrose gradient, anion exchange); also called purified Rubisco; Cr L8S8 Rubisco

[9] = biological target: T5, Chlamydomonas reinhardtii Rubisco …; test: SPR; highest binding affinity of all peptides tested
[10] = biological target: T5, Chlamydomonas reinhardtii Rubisco …; test: SPR, Rubisco immobilized, peptide at 0-4.0 mM in solution (FIG. 4C)
From the text: FIGS. 4A-4C show the EPYC1 fragment that was used to generate the cryoelectron microscopy structure shown in FIGS. 5A-5D, as well as the binding affinity of the EPYC1 fragment for Rubisco. […] The four nearly identical repeats (Repeats 1-4), flanked by short N- and C- termini are indicated. The dark grey boxes represent the ten RBMs on EPYC1. The dark grey bar above the boxes (“EPYC1 peptide”) spans RBM 2 of EPYC1 and represents the 24 amino acid EPYC1 fragment (SEQ ID NO: 51) that was used to generate the cryoelectron microscopy structure of Rubisco bound to the RBM 2 EPYC1 fragment shown in FIGS. 5A-5D. FIGS. 4B-4C provide results of SPR experiments to determine the binding affinity of the 24 amino acid EPYC1 fragment diagramed in FIG. 4A for Rubisco. […] The response difference (Resp. Diff., in RU) is shown on the y-axis.
Surface Plasmon Resonance (SPR) Assay Rubisco was immobilized on a surface and peptides in solution were flowed over the surface. Surface plasmon measurements of binding of individual peptides to Rubisco were assayed (FIG. 3B).

| highest 3-AT concentration permissive for growth (Y2H), box pattern read against the printed key [1] [mM 3-AT] | highest 3-AT concentration permissive for growth (Y2H), box pattern read against the printed key [2] [mM 3-AT] | highest 3-AT concentration permissive for growth (Y2H), box pattern read against the printed key [3] [mM 3-AT] | binding result [4] | binding result [5] | binding result [6] | binding result [7] | Ka [8] [M⁻¹] | Kd [9] [mM] | Kd [10] [mM] | Binder |
| --- | --- | --- | --- | --- | --- | --- | --- | --- | --- | --- |
| 0 | 0 | 20 | no binding | no binding | no binding | no binding | – | – | – | Chlamydomonas reinhardtii Essential Pyrenoid Component 1 (EPYC1) (other, also called WT EPYC1) MATISSMRVGAASRVVVSGRVKTVKVAARGSWRESSTATVQASRASSATNRVSPTRSVLPANWRQELESLRNGNGSSSAASSAPAPARSSSASWRDAAPASSAPARSSSASKKAVTPSRSALPSNWKQELESLRSSSPAPASSAPAPARSSSASWRDAAPASSAPARSSSSKKAVTPSRSALPSNWKQELESLRSSSPAPASSAPAPARSSSASWRDAAPASSAPARSSSASKKAVTPSRSALPSNWKQELESLRSNSPAPASSAPAPARSSSASWRDAPASSSSSSADKAGTNPWTGKSKPEIKRTALPADWRKGL |
| – | – | – | – | – | – | – | 324 | 3 | 3.09 | TNRVSPTRSVLPANWRQELESLRN (also called EPYC1 peptide; RBM 2 EPYC1 fragment) [24 amino acid EPYC1 fragment spanning RBM 2] |
